Sequences and labels used below:
B1: ASC^CARD (M2H fusion) [human] / NLRP1^CARD (M2H fusion) [human] (parent complex)
chain 1: AAKPGLHFIDQHRAALIARVTNVEWLLDALYGKVLTDEQYQAVRAEPTNPSKMRKLFSFTPAWNWTCKDLLLQALRESQSYLVEDLERS
chain 2: DAPQLLHFVDQYREQLIARVTSVEVVLDKLHGQVLSQEQYERVLAENTRPSQMRKLFSLSQSWDRKCKDGLYQALKETHPHLIMELWEKG
B2: NLRP1^CARD (M2H fusion) [human] / ASC^CARD (M2H fusion) [human] (parent complex)
chain 1: B1 chain 2
chain 2: B1 chain 1

Variants of B1 are the subject of one experiment. As to the kind of experiment: M2H (mammalian two-hybrid, luciferase); HEK293T cells; GAL(DBD)-NLRP1^CARD with VP16-ASC^CARD; luciferase normalized to Renilla; parent: 2.1; read off a plot.
With chain 1 AAKPGLHFIDQHRAALIARVTNVEWLLDALYGKVLTAAQYQAVRAEPTNPSKMRKLFSFTPAWNWTCKDLLLQALRESQSYLVEDLERS [chain 1 D37A, chain 1 E38A], the response was ~1.4 fold of negative control. Still for that read-out and setting: then chain 1 AAKPGLHFIDQHRAALIARVTNVEWLLDALYGKVLTDEQYQAVRAEPTNPSKMEKLFSFTPAWNWTCKDLLLQALRESQSYLVEDLERS [chain 1 R54E], with ~0.87 fold of negative control; and chain 1 AAKPGLHFIDQHRAALIAAVANVEWLLDALYGKVLTDEQYQAVRAEPTNPSKMRKLFSFTPAWNWTCKDLLLQALRESQSYLVEDLERS [chain 1 R19A, chain 1 T21A], with ~1.1 fold of negative control.

Turning to chain 1 AAKPGLHFIDQHDAALIARVTNVEWLLDALYGKVLTDEQYQAVRAEPTNPSKMRKLFSFTPAWNWTCKDLLLQALRESQSYLVEDLERS [chain 1 R13D], the response is ~0.57 fold of negative control. Still for that read-out and setting: as for chain 1 AAKPGLHFIDQHRAALIARVTNVEWLLDALYGKVLTDEQYQAVRAEPTNPSKMRKLFSFTPAGAWTCKDLLLQALRESQSYLVEDLERS [chain 1 W63G, chain 1 N64A], the figure is ~1.2 fold of negative control; as for chain 1 AAKPGLHFIDQHRAALIARVTAVRWLLDALYGKVLTDEQYQAVRAEPTNPSKMRKLFSFTPAWNWTCKDLLLQALRESQSYLVEDLERS [chain 1 N22A, chain 1 E24R], ~0.8 fold of negative control. On the same count and under the same terms, then chain 1 AAKPGLHFIDQHRAALIARVTNVEWLLKALYGKVLTDEQYQAVRAEPTNPSKMRKLFSFTPAWNWTCKDLLLQALRESQSYLVEDLERS [chain 1 D28K], with ~0.78 fold of negative control.

Another experiment covers variants of B2. As to the kind of experiment: M2H (mammalian two-hybrid, luciferase); HEK293T cells; GAL(DBD)-ASC^CARD with VP16-NLRP1^CARD; luciferase normalized to Renilla; parent: 3; read off a plot.
Consider chain 1 DAPQLLHFVDQYREQLIARVTSVEVVLDKLHGQVLSQEQYERVLAENTRPSQMRKLFSLSQSWDRKCKDGLYQALKETHPELIMELWEKG [chain 1 H81E], for which the response is ~0.98 fold of negative control. Same read-out and setting: as for chain 1 DAPQLLHFVDQYREQLIAAVTSVEVVLDKLHGQVLSQEQYERVLAENTRPSQMRKLFSLSQSWDRKCKDGLYQALKETHPHLIMELWEKG [chain 1 R19A], the figure is ~1.1 fold of negative control; as for chain 1 DAPQLLHFVDQYREQLIARVTSVEVVLDKLHGQVLSQEQYERVLAENTRPSQMRKLFSLSQSGKRKCKDGLYQALKETHPHLIMELWEKG [chain 1 W63G, chain 1 D64K], ~0.97 fold of negative control; as for chain 1 DAPQLLHFVDQYREQLIARVTSVEVVLDKLHGQVLSAEQYRRVLAENTRPSQMRKLFSLSQSWDRKCKDGLYQALKETHPHLIMELWEKG [chain 1 Q37A, chain 1 E41R], ~1.7 fold of negative control. On the same count and under the same terms, as for chain 1 DAPQLLHFVDQYREQLIAAVTSVEVVLDKLHGQVLSQEQYERVLAENTAPSQMRKLFSLSQSWDRKCKDGLYQALKETHPHLIMELWEKG [chain 1 R19A, chain 1 R49A], the figure is ~1.8 fold of negative control; as for chain 1 DAPQLLHFVDQYREQLIARVTSVRVVLKKLHGQVLSQEQYERVLAENTRPSQMRKLFSLSQSWDRKCKDGLYQALKETHPHLIMELWEKG [chain 1 E24R, chain 1 D28K], ~0.77 fold of negative control; as for chain 1 DAPQLLHFVDQYREQLIARVTSVEVVLDKLHGQVLSQEQYERVLAENTRPSQMAKLFSLSQSWDRKCKDGLYQALKETHPHLIMELWEKG [chain 1 R54A], ~1.5 fold of negative control.

The values above are taken from paper PMC7801473 (2021).
